Measurements from article PMC6079010.

Target: catalytic domain of KAT2A (as crystallised, apo and with succinyl-CoA)
Experiment: crystal structure; apo (space group P4_(1)2_(1)2) and succinyl-CoA-complexed (P2_(1)3) crystals of the catalytic domain, grown at pH 4.6; octahedral assembly seen in both

stoichiometry N: 24
Substance: catalytic domain of KAT2A (as crystallised, apo and with succinyl-CoA) (domain or fragment)
